{"source": "patent US20260116960A1", "about": "(SHANGHAI HONGCHENG BIOPHARMACEUTICAL, published 2026)", "binders": {"B1": {"name": "sintilimab (antibody, V domains shown)", "VH": "QVQLVQSGAEVKKPGSSVKVSCKASGGTFSSYAISWVRQAPGQGLEWMGLIIPMFDTAGYAQKFQGRVAITVDESTSTAYMELSSLRSEDTAVYYCARAEHSSTGTFDYWGQGTLVTVSS", "VL": "DIQMTQSPSSVSASVGDRVTITCRASQGISSWLAWYQQKPGKAPKLLISAASSLQSGVPSRFSGSGSGTDFTLTISSLQPEDFATYYCQQANHLPFTFGGGTKVEIK"}, "B2": {"name": "HC010-F14 (trispecific antibody, human IgG4 S228P)", "heavy 1": "EVQLVESGGGLVQPGGSLRLSCAASGFTFSSYGMSWVRQAPGKCLEWVSTISGGGRDTYYPDSVKGRFTISRDNSKNTLYLQMNSLRAEDTAVYYCARQNGITWFADWGQGTLVTVSSGGGGSGGGGSGGGGSGGGGSDIQMTQSPSSLSASVGDRVTITCRASESVDNYGISFMNWYQQKPGKAPKLLIYAASNQGSGVPSRFSGSGSGTDFTLTISSLQPEDFATYYCQQSKEVPWTFGCGTKVEIKGGGGSGGGGSGGGGSGGGGSESKYGPPCPPCPAPEFLGGPSVFLFPPKPKDTLMISRTPEVTCVVVDVSQEDPEVQFNWYVDGVEVHNAKTKPREEQFNSTYRVVSVLTVLHQDWLNGKEYKCKVSNKGLPSSIEKTISKAKGQPREPQVYTLPPCQEEMTKNQVSLWCLVKGFYPSDIAVEWESNGQPENNYKTTPPVLDSDGSFFLYSRLTVDKSRWQEGNVFSCSVMHEALHNHYTQKSLSLSLGAGGGGSGGGGSGGGGSGGGGSEVQLVESGGGLVQPGGSLRLSCAASGYTFTNYGMNWVRQAPGKCLEWVGWINTYTGEPTYAADFKRRFTFSLDTSKSTAYLQMNSLRAEDTAVYYCAKYPHYYGSSHWYFDVWGQGTLVTVSSGGGGSGGGGSGGGGSGGGGSDIQMTQSPSSLSASVGDRVTITCSASQDISNYLNWYQQKPGKAPKVLIYFTSSLHSGVPSRFSGSGSGTDFTLTISSLQPEDFATYYCQQYSTVPWTFGCGTKVEIK", "heavy 2": "EVQLLESGGGLVQPGGSLRLSCAASGSIFSINHMAWYRQAPGKQRELVAGVNSRGTTNYVDSVKGRFTISRDNSKNTLYLQMNSLRAEDTAVYYCRALGGAVAAWGQGTLVTVSSGGGGSGGGGSGGGGSGGGGSESKYGPPCPPCPAPEFLGGPSVFLFPPKPKDTLMISRTPEVTCVVVDVSQEDPEVQFNWYVDGVEVHNAKTKPREEQFNSTYRVVSVLTVLHQDWLNGKEYKCKVSNKGLPSSIEKTISKAKGQPREPQVCTLPPSQEEMTKNQVSLSCAVKGFYPSDIAVEWESNGQPENNYKTTPPVLDSDGSFFLVSRLTVDKSRWQEGNVFSCSVMHEALHNRFTQKSLSLSLGAGGGGSGGGGSGGGGSGGGGSEVQLVESGGGLVQPGGSLRLSCAASGYTFTNYGMNWVRQAPGKCLEWVGWINTYTGEPTYAADFKRRFTFSLDTSKSTAYLQMNSLRAEDTAVYYCAKYPHYYGSSHWYFDVWGQGTLVTVSSGGGGSGGGGSGGGGSGGGGSDIQMTQSPSSLSASVGDRVTITCSASQDISNYLNWYQQKPGKAPKVLIYFTSSLHSGVPSRFSGSGSGTDFTLTISSLQPEDFATYYCQQYSTVPWTFGCGTKVEIK", "notes": "also called H010-F14"}, "B3": {"name": "camrelizumab (antibody, V domains shown)", "VH": "EVQLVESGGGLVQPGGSLRLSCAASGFTFSSYMMSWVRQAPGKGLEWVATISGGGANTYYPDSVKGRFTISRDNAKNSLYLQMNSLRAEDTAVYYCARQLYYFDYWGQGTTVTVSS", "VL": "DIQMTQSPSSLSASVGDRVTITCLASQTIGTWLTWYQQKPGKAPKLLIYTATSLADGVPSRFSGSGSGTDFTLTISSLQPEDFATYYCQQVYSIPWTFGGGTKVEIK"}, "B4": {"name": "202F1 (VHH)", "VHH": "EVQLLESGGGLVQPGGSLRLSCAASGSIFSINHMAWYRQAPGKQRELVAGVNSRGTTNYVDSVKGRFTISRDNSKNTLYLQMNSLRAEDTAVYYCRALGGAVAAWGQGTLVTVSS", "notes": "also called anti-CTLA-4 nanobody (202F1)"}, "B5": {"name": "202F1-hIgG1 (antibody, V domains shown)", "VH": "EVQLLESGGGLVQPGGSLRLSCAASGSIFSINHMAWYRQAPGKQRELVAGVNSRGTTNYVDSVKGRFTISRDNSKNTLYLQMNSLRAEDTAVYYCRALGGAVAAWGQGTLVTVSS", "notes": "also called anti-CTLA-4 nanobody 202F1 with hIgG1 constant region"}}, "key": {"[1]": {"molecular_target": "T1, human PD-1 on the cell surface (human, UniProt Q15116 25-288)", "T1 construct": "whole, on cells; also called cell surface PD-1", "T1 sequence (Q15116 25-288)": "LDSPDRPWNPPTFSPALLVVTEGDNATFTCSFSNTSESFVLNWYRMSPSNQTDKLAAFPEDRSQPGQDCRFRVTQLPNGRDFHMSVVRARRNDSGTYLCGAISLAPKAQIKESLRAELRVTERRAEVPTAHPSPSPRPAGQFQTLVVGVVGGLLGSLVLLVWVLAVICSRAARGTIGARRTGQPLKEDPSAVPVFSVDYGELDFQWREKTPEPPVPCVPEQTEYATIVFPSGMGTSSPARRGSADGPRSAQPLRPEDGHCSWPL", "assay": "flow cytometry on activated human T cells (CD3+), PE anti-human IgG Fc", "experimental": "Human peripheral blood mononuclear cells (PBMCs, Miaoshun (Shanghai) Biotechnology Co., Ltd., Catalog No.: A19K154025) were rapidly thawed in a 37° C. water bath, resuspended in T cell isolating solution, and counted. After centrifugation at 400 g for 10 minutes, the supernatant was removed and the cells were resuspended to 5×10⁷ cells/mL with T cell separation buffer. T cells were isolated according to the procedure of a T cell isolation kit (Stemcell, Catalog No.: 19051), and the obtained T cells were resuspended in culture medium. The cells were counted using NucleoCounter NC-200 and the T cell density was adjusted to approximately 1×10⁶ cells/mL. Dynabeads containing anti-CD3 and anti-CD28 antibodies (Invitrogen™, Catalog No.: 11132D) and 10 ng/ml hIL-2 (Peprotech, Catalog No.: 200-02) were added and cultured in a 37° C., 5% CO₂ incubator for 3 days. After removing Dynabeads and supernatant, the activated T cells were resuspended in FACS buffer. The cell density was adjusted to about 1×10⁶ cells/mL, and 100 μL of cell solution was added into a 96-well U-bottom plate, 1×10⁵ cells/well. After centrifugation at 500 g for 5 minutes, the supernatant was discarded and 100 μL of the trispecific antibody solution of the present application serially diluted 3-fold with FACS buffer was added in triplicate, with a starting concentration of 200 nM. After mixing, incubated at 4° C. for 60 minutes. After centrifugation and washing three times with FACS buffer, 100 μL/well of PE anti-human IgG Fc (Biolegend, Catalog No.: 366903) was added and incubated at 4° C. for 50 minutes. After washing the plate three times with FACS buffer, 100 μL/well of BV421 anti-human CD3 antibody (OKT3) (Biolegend, Catalog No.: 317344) was added and incubated at 4° C. for 50 minutes. After washing the plate three times with FACS buffer, 70 μL/well of PBS solution was added to resuspend the cells, and the fluorescent signal on CD3 T cells was detected on a flow cytometer (BD Cellesta). The binding activity was fitted using a four-parameter model, and the EC₅₀ value of each antibody binding to T cells was calculated."}, "[2]": {"molecular_target": "T2, human CTLA-4 on the cell surface (human, UniProt P16410 36-223)", "T2 construct": "whole, on cells; also called CHO-hCTLA-4 cells; CHOK1-hCTLA4 cells", "T2 sequence (P16410 36-223)": "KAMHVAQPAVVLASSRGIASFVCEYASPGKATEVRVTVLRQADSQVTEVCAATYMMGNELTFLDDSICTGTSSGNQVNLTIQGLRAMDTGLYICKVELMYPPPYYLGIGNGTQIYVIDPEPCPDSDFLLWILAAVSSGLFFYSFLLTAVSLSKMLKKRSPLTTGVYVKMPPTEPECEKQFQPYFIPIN", "assay": "flow cytometry competition, 293T-hPD-1-hCTLA-4 cells (PD-1 co-expressed), biotin-human CD80", "experimental": "PD-1 and CTLA-4 are co-expressed on functionally exhausted T cells in the tumor microenvironment, and the expression level of PD-1 is higher than that of CTLA-4. […] 200 μL of the cells were added to a 96-well U-bottom plate, approximately 1.4×10⁵ cells/well. After centrifugation at 300 g for 5 minutes, the supernatant was discarded. […] After washing three times with FACS buffer, 100 μL/well of 1:800 diluted PE Streptavidin was added and incubated at 4° C. for 50 min. After washing three times with FACS buffer, 150 μL/well of PBS was added to resuspend the cells, and the fluorescence signal was detected on a flow cytometer (BECKMAN COULTER cytoFLEX). The binding activity was fitted using a four-parameter model, and the IC₅₀ value of the blocking activity of each antibody was calculated."}, "[3]": {"molecular_target": "human PD-1 protein (Acro, PD1-H5257) (human, UniProt Q15116 25-167)", "sequence (Q15116 25-167 limits assumed)": "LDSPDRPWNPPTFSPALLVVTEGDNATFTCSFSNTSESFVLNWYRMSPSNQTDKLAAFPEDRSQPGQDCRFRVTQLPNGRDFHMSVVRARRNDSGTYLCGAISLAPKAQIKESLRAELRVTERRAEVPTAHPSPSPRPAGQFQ", "assay": "competitive ELISA, PD-1 coated, biotin-PD-L1 as labelled ligand", "experimental": "The next day, the plate was washed three times with PBS solution and blocked with 1% BSA-PBS solution at 37° C. for 1 hour. […] 100 μL of the antibody-protein mixture was added to each well of the blocked 96-well ELISA plate and incubated at 37° C. for 1 hour. After washing four times with PBST, 100 μL of Strep-HRP (BD, Catalog No. 554066) diluted 1:5000 was added to each well of the ELISA plate and incubated at 37° C. for 1 hour. After washing 4 times with PBST, TMB was used for color development. The absorbance at 450 nm and 630 nm was detected by a microplate reader, and OD450-OD630 was calculated. The fluorescence intensity was fitted using a four-parameter model, and the IC₅₀ value of the blocking activity of each antibody was calculated."}, "[4]": {"molecular_target": "T1, human PD-1 on the cell surface", "assay": "flow cytometry competition, 293T-hPD-1 cells, biotin-human PD-L1", "experimental": "50 μL of antibody solution serially diluted 3-fold in FACS buffer was added in triplicate, with a starting concentration of 200 nM. After mixing, incubated at 4° C. for 60 minutes. After washing three times with FACS buffer, 100 μL/well of 1:800 diluted PE Streptavidin was added and incubated at 4° C. for 50 min. After washing three times with FACS buffer, 150 μL/well of PBS was added to resuspend the cells, and the fluorescence signal was detected on a flow cytometer (BECKMAN COULTER cytoFLEX). The four-parameter model was used to fit the binding activity and the IC₅₀ value of the blocking activity of each antibody was calculated."}, "[5]": {"molecular_target": "T3, human PD-1 protein (Acro, Catalog No. PD1-H5221) (human, UniProt Q15116 25-167)", "T3 construct": "Bought protein; also called human PD1-his; not shown: his tag", "T3 sequence (Q15116 25-167 limits assumed)": "as above", "assay": "ELISA, plate coated with human PD-1 protein", "experimental": "(§1) ELISA was used to determine the activity of the trispecific antibodies binding to the PD-1 protein: 1 μg/mL human PD-1 protein (Acro, Catalog No.: PD1-H5221) was used to coat a high-adsorption 96-well ELISA plate and incubated at 4° C. overnight. On the next day, the plate was washed three times with PBST solution and blocked with 1% BSA-PBS solution at 37° C. for 1 hour. At the same time, 3-fold gradient dilutions of the antibody were prepared with 1% BSA-PBS solution, with a starting concentration of 10 nM. The antibodies of each gradient concentration were added to the blocked 96-well ELISA plate at 100 µL/well in triplicate and incubated at 37° C. for 1 hour. The plate was then washed three times with 0.05% PBST solution, and 100 μL/well of HRP-labeled secondary antibody (Sigma, Catalog No.: A0170) diluted at 1:5000 was added to the ELISA plate and incubated at 37° C. for 1 hour. The plate was washed three times with 0.05% PBST solution and developed with TMB. The absorbance of the 96-well ELISA plate at 450 nm was detected by an ELISA reader. The OD₄₅₀ value was fitted using a four-parameter model to calculate the EC₅₀ value of each antibody binding to PD-1."}, "[6]": {"molecular_target": "T4, human VEGF165-his protein (Acro, Catalog No. VE5-H5248) (human, UniProt P15692-4 27-191)", "T4 construct": "Bought protein; also called hVEGF165-His; VEGFA; not shown: his tag", "T4 sequence (P15692 other isoform, or with tags, fused parts or gaps limits assumed)": "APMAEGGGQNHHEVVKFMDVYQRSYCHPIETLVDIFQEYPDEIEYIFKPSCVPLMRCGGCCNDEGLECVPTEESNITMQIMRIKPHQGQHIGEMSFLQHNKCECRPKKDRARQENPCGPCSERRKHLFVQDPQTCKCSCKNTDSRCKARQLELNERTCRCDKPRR", "assay": "ELISA, plate coated with human VEGF165-his", "experimental": "as §1\nThe binding activity of the trispecific antibodies to VEGFA protein was detected by ELISA method as described in Section 2.1. The used human VEGF165-his protein was purchased from Acro, Catalog No.: VE5-H5248."}, "[7]": {"molecular_target": "T5, human CTLA-4 protein (Acro, Catalog No. CT4-H52H9) (human, UniProt P16410 36-161)", "T5 construct": "Bought protein", "T5 sequence (P16410 36-161 limits assumed)": "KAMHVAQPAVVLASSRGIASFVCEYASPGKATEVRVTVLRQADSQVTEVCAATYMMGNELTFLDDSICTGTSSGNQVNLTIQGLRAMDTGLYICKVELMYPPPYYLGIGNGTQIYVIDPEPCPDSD", "assay": "ELISA, plate coated with human CTLA-4 protein"}, "[8]": {"molecular_target": "T5, human CTLA-4 protein (Acro, Catalog No. …)", "assay": "BLI (Octet RED96e), antibody on AHC sensor, antigen as analyte 6.25-100 nM, 1:1 model", "experimental": "Octet® RED96e (ForteBio) was used to detect the affinity of trispecific antibodies to human PD-1, CTLA-4 and VEGFA. The specific method was as follows: the AHC Sensor was immersed in PBST (PBS containing 0.02% Tween) buffer for 10 minutes to activate the Sensor. The ligand (antibody to be tested) was diluted to 5 μg/mL with PBST buffer. […] The diluted ligand and analyte were added to the corresponding wells at 200 μL/well in triplicate. Program parameter settings: loading: 180 s, association: 180 s, dissociation: 600 s, regeneration: Gly-HCl pH 1.5, 30s, regeneration 3 times. […] Curve fit acceptance criteria: Full R\\hat{ }2≥0.95."}, "[9]": {"molecular_target": "T2, human CTLA-4 on the cell surface", "assay": "flow cytometry, CHO-hCTLA-4 cells, batch FACS#4"}, "[10]": {"molecular_target": "T2, human CTLA-4 on the cell surface", "assay": "flow cytometry, CHO-hCTLA-4 cells, batch FACS#3"}}, "data": [{"binder": "B1", "values": [{"measurement": "EC50", "setting": "[1]", "result": 0.231, "unit": "nM"}]}, {"binder": "B2", "values": [{"measurement": "IC50", "setting": "[2]", "result": 0.116, "unit": "nM"}, {"measurement": "IC50", "setting": "[3]", "result": 2.41, "unit": "nM"}, {"measurement": "IC50", "setting": "[4]", "result": "> 200", "unit": "nM"}, {"measurement": "EC50", "setting": "[5]", "result": 0.472, "unit": "nM"}, {"measurement": "EC50", "setting": "[6]", "result": 0.096, "unit": "nM"}, {"measurement": "EC50", "setting": "[7]", "result": 0.734, "unit": "nM"}]}, {"binder": "B3", "values": [{"measurement": "EC50", "setting": "[1]", "result": 0.473, "unit": "nM"}]}, {"binder": "B4", "values": [{"measurement": "Kd", "setting": "[8]", "result": 0.203, "unit": "nM"}]}, {"binder": "B5", "values": [{"measurement": "EC50", "setting": "[9]", "result": 1.05, "unit": "nM"}, {"measurement": "EC50", "setting": "[10]", "result": 1.71, "unit": "nM"}, {"measurement": "EC50", "setting": "[7]", "result": 0.078, "unit": "nM"}]}]}
